Experimental data: the supplement of paper PMC12764529
± gives the half width of the 95% confidence interval.

Columns and labels:
[1] = folding stability dG unfold (combined trypsin and chymotrypsin); higher = more stable
Procedure, shortened: (§1)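 Mini-proteins designed to be under 80 residues and free of cysteine were carried in a PA-tagged cDNA display construct and digested with trypsin and with chymotrypsin. Each protease was applied at 11 threefold-diluted concentrations, alongside a no-protease condition, before sequencing. K50 came from Bayesian fitting of the sequencing counts, and unfolding free energy was obtained by comparing it with a sequence-predicted unfolded-state K50 and a shared folded-state K50, for each protease separately or for both together. Designs were retained only if their AlphaFold2 dimer inter-PAE exceeded 15.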

[2] = folding stability dG unfold from trypsin proteolysis; higher = more stable
Procedure, shortened: as §1

[3] = folding stability dG unfold from chymotrypsin proteolysis; higher = more stable
Procedure, shortened: as §1

Sequence	folding stability dG unfold [1] [kcal/mol]	folding stability dG unfold [2] [kcal/mol]	folding stability dG unfold [3] [kcal/mol]
SAGGMVTLTLPSPDGSTLTVTVEKDPNADYYRATVTTHHPDGTVTVTESVIHPDGTTTTLATTTLPASAGGS [r16_213_JUSTAS]	2.23 ± 0.12	2.11 ± 0.08	2.22 ± 0.04
SAGGMVTLTYTDLVEEDPEVKAAKARELAEELREKGYTVTDATFDPEAGTLTITVSADDATLEEIAASAGGS [r8_344_TrMRF]	1.27 ± 0.099	1.26 ± 0.071	1.1 ± 0.065
SAGGMVTVTDPNGVKHEYKLKVKITFEKPDGKPVTVEIEFDNVTVEDIVKIAKEIESKGYKLVSIEISSAGG [r13_227_TrMRF]	4.74 ± 0.22	3.73 ± 0.34	4.91 ± 0.15
SAGGMVYRVKVKITFPDGKTYYIPFPNFKSFEEILNVLKKLGFENLENIPIEVIEIEPIPEVPEELLKSAGG [r13_493_TrMRF]	2.74 ± 0.16	1.53 ± 0.066	3.07 ± 0.11
SAGGMYEIVDLLSVEPDPETGALTRTFLLRDPDSDRFLVAEVRIDPENPDRVEIRLYDEDGNLIAEFPSAGG [r13_658_TrMRF]	3.93 ± 0.045	3.36 ± 0.083	4.148 ± 0.034
SAGGMYILELTFTTPTSTTPRTVEVPPGNYEEAAKALREELAAEAGAADLEVTFTVYKVAPDGTLVEESAGG [r13_877_JUSTAS]	2 ± 0.19	1.16 ± 0.049	2.51 ± 0.097
SAGGMYKARIEVKNPEEVKKKIKELGLEFEIETRPDGSVDIYFPPEYVDKLIKAFPGEKIEIEPIPDESAGG [r13_261_TrMRF]	3.29 ± 0.14	2.94 ± 0.15	3.38 ± 0.11
SAGGMYKVKIYFEDTKEEIEIEASAEEVLEAIKNGDLDALKKLFPGAKIVKIEVEKVEPEPEEEEEEESAGG [r13_629_TrROS_Hall]	3.44 ± 0.29	3.33 ± 0.27	3.48 ± 0.23
SAGGMYLVKIKVKIDSPTSEKERDLYILAEPDTDVEEIVKKIPGAKNIEIEVEIIPPSENPEIASNPLSAGG [r19_339_JUSTAS]	0.684 ± 0.25	0.645 ± 0.12	0.7 ± 0.15
SAGGMYVEVVIDNPDPDISPEELAEEVARELAPDPFEIKPVKIEPELIGGIPKVTILFEVDDPEAVEESAGG [r13_979_TrMRF]	0.763 ± 0.056	0.238 ± 0.049	0.958 ± 0.019
SAGGNAKEIASYLADWFQERFPPNMKVKVSVTVTPDGIVVRIRMPGGWQFEITIKDGKLQEIEWTPYSAGGS [r8_287_TrROS]	2.79 ± 0.067	2.72 ± 0.07	2.874 ± 0.026
SAGGNGRKKVKIDISIMIPIPPNDMPPEQRMKLAKELAERIARSLARKEGADPDKIDEVKVRFHIFPWSAGG [r13_5_TrROS]	2.44 ± 0.072	2.03 ± 0.027	2.65 ± 0.067
SAGGNKATLTVSEDNYPVLLLELYAPDGELIATAPVLLDPEKGGLTAADLERLLKEIDVPPDVEVNIASAGG [r13_479_TrMRF]	1.32 ± 0.091	1.21 ± 0.096	1.36 ± 0.037
SAGGNKNGKPKPTVPFKIMVMKPKPRRNDNNGQEEPRYDMRPVEIEFPLGEEIDLEEALENPDYIFIMSAGG [r13_753_TrROS]	0.199 ± 0.15	-0.0176 ± 0.14	0.276 ± 0.18
SAGGNLFIRIKIEHDGGPITHWFPIKDAEQAKDNIKEFFDQQGLPVKIKEIEVFPEEGFIPVEWRVPPSAGG [r13_567_TrROS]	0.348 ± 0.11	0.101 ± 0.12	0.485 ± 0.12
SAGGNLMIRVELYRPKPDPEGEWQKREVTLPMPPGEPIEELIDELRPPGWVIEIDIFDNGKPIREYYIRSAG [r5_278_TrROS]	2.34 ± 0.35	1.76 ± 0.12	2.86 ± 0.14
SAGGNMFMIKIDDPDALKELANEPGISSVHYNPNNGRYTVMFNFPDGMRTFEIDAEDGKIKEIEPFPSAGGS [r8_251_TrROS]	1.79 ± 0.039	1.58 ± 0.034	1.82 ± 0.037
SAGGNMWMVRVKIDDGKTFMITSPEDIEEYLKKKLGPNYKIKEVEWHRMPPPNGPPMPMHEFEIEVPSAGGS [r16_408_TrROS]	1.76 ± 0.16	1.28 ± 0.062	2.02 ± 0.1
SAGGNRIMFIVNSPEEAERFANFIRKHLPPGMNLEIEIEPFPLKDNVPPDDPDYKNQPVYMVHITIPSAGGS [r16_795_TrROS]	3.73 ± 0.2	3 ± 0.096	4.13 ± 0.12
SAGGNRKFTLIIRIKAPPGDPDKMKEEVKEIANEIADIFRDHGVKVKVKVEYDPDNGEIYVQVEFEVPSAGG [r13_755_TrROS]	4.78 ± 0.29	3.89 ± 0.29	5.12 ± 0.31
SAGGNTIMIPMDPPQAREFAKNFIGEFLDQAEENPDRPIEIMVPGPEGRYITIRVDPKEGNLEIEVVPSAGG [r13_216_TrROS]	0.125 ± 0.089	0.231 ± 0.057	-0.125 ± 0.17
SAGGPATLTFEFPAEDGSRVRVEVTVEEVPFVDPRTGEPVAPFLKVHVKVTVFDEDGEAHEAEFELLSAGGS [r8_474_TrMRF]	3.73 ± 0.12	2.22 ± 0.043	4.21 ± 0.075
SAGGPDELELVIVFPAEALGTGEGGEPYTAEDIAEAIKKELPKDEVEVEIAEIDEETGEIVVTVKVPSAGGS [r16_284_TrMRF]	0.748 ± 0.23	0.747 ± 0.13	0.449 ± 0.077
SAGGPEVFVFRDPLTGTWSLAVYDPSTGLWTVTYPDGTVALYRRSGDSWELVEARPVPPAPVDPDLASAGGS [r16_687_TrMRF]	3.54 ± 0.065	3.34 ± 0.12	3.714 ± 0.014
SAGGPGAAPTSTTVTVTIHLPMPPDVSDEEAKALAKERIKEEFPPSYTIESITVDPATNVVTATVKVASAGG [r19_81_JUSTAS]	3.11 ± 0.16	3.32 ± 0.15	2.88 ± 0.1
SAGGPGFQRYPYTLELPDGRKITVEYWRMGDNPYVQIDIRHDGEPLGTIHVPVPSPDQIEDAAKDIISAGGS [r16_55_TrROS]	1.58 ± 0.072	1.18 ± 0.057	1.78 ± 0.054
SAGGPISKKKIVTAPVSYDPATGKYTITLTYPDSTYTIPSDLSDLEEALKRAKEKLEKETGIPVETVLGSAG [r5_251_JUSTAS]	0.918 ± 0.074	0.576 ± 0.032	1 ± 0.11
